Reference: patent publication US7427404

Target: monoclonal anti-S1 antibody 1B7
Assay: competition RIA: 1B7 coated on plate, 125I-PT displaced by unlabelled toxin

Substance: PT-9K (from UniProt P04978 28-226; P04979 29-227; P0A3R5 43-152; P04981 35-133)
- Ka: 8.9e+08 M⁻¹
